From article PMC4741959, “Methionine adenosyltransferase α2 sumoylation positively regulate Bcl-2 expression in human colon and liver cancer cells” come the findings set out here.

This data set has as its target recombinant MATα2 (UniProt P31153 1-395). The data set is described as follows: EMSA; 200 ng protein; LightShift Chemiluminescent EMSA Kit protocol (Thermo); buffer, salt, pH and binding temperature not stated. Particulars: label: biotin (extract EMSA), SYBR Green gel stain with recombinant protein, blunt. (In general: Mobility shift assays separate free from complexed probe on a gel.)

Sequence of recombinant MATα2 (P31153 whole entry): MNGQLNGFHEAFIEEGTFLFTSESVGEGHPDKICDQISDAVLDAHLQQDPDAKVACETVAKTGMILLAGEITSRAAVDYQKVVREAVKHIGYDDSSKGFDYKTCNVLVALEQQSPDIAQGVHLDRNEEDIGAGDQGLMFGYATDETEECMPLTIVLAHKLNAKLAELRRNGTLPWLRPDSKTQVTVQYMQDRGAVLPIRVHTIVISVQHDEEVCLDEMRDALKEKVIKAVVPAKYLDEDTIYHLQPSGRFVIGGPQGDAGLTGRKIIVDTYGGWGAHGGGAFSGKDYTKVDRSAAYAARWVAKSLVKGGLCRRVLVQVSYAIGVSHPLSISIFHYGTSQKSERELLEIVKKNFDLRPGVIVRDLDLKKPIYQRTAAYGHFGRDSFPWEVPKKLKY

B1: Bcl-2 P2 promoter probe 3 (site 3) (dsDNA)
DNA 1: GGCAGCTTAATACATTCTTTTTAGCCG
DNA 2: CGGCTAAAAAGAATGTATTAAGCTGCC
With B1, the binding result was “binds”.

B2: Bcl-2 P2 promoter probe 2 (site 2) (dsDNA)
DNA 1: GGTTTAATGTAACTTTCAATGG
DNA 2: CCATTGAAAGTTACATTAAACC
As for B2, the binding result is listed as “binds”.

B3: Bcl-2 P2 promoter probe 1 (site 1) (dsDNA)
DNA 1: TGCGGATTGACATTTCTGTGAA
DNA 2: TTCACAGAAATGTCAATCCGCA
For the molecule B3, the binding result is recorded as “binds”.
